Source: publication PMC10044410 (Cell, 2023)

What was measured:
[1] = biological target: GroEL (untagged, from pET15b, for quantitative binding studies) (E. coli, UniProt P0A6F5 1-548); assay: other fluorescence titration
[2] = biological target: GroEL (wild type, recombinant, from pET22b-groL) (E. coli, UniProt P0A6F5 1-548); assay: SEC
[3] = biological target: GroEL_(R452A/E461A/S463A/V464A) (E. coli, UniProt P0A6F5 1-548, R452A | E461A | S463A | V464A); assay: SEC

B1: GroES (for quantitative binding studies, His tag removed) (natural protein, E. coli)
chain: MNIRPLHDRVIVKRKEVETKSAGGIVLTGSAAAKSTRGEVLAVGNGRILENGEVKPLDVKVGDIVIFNDGYGVKSEKIDNEEVLIMSESDILAIVEA
Ki [1]: 47 nM

B2: Citrate synthase (CS) from pig hearts, chemically unfolded (enzyme, UniProt P00889 28-464, looked up)
chain: ASSTNLKDILADLIPKEQARIKTFRQQHGNTVVGQITVDMMYGGMRGMKGLVYETSVLDPDEGIRFRGYSIPECQKMLPKAKGGEEPLPEGLFWLLVTGQIPTEEQVSWLSKEWAKRAALPSHVVTMLDNFPTNLHPMSQLSAAITALNSESNFARAYAEGIHRTKYWELIYEDCMDLIAKLPCVAAKIYRNLYREGSSIGAIDSKLDWSHNFTNMLGYTDAQFTELMRLYLTIHSDHEGGNVSAHTSHLVGSALSDPYLSFAAAMNGLAGPLHGLANQEVLVWLTQLQKEVGKDVSDEKLRDYIWNTLNSGRVVPGYGHAVLRKTDPRYTCQREFALKHLPHDPMFKLVAQLYKIVPNVLLEQGKAKNPWPNVDAHSGVLLQYYGMTEMNYYTVLFGVSRALGVLAQLIWSRALGFPLERPKSMSTDGLIKLVDSK
binding result [2]: binds

B3: CnoX (wild type, recombinant, from pET22b-cnoX) (natural protein, E. coli)
chain: MSVENIVNINESNLQQVLEQSMTTPVLFYFWSERSQHCLQLTPILESLAAQYNGQFILAKLDCDAEQMIAAQFGLRAIPTVYLFQNGQPVDGFQGPQPEEAIRALLDKVLPREEELKAQQAMQLMQESNYTDALPLLKDAWQLSNQNGEIGLLLAETLIALNRSEDAEAVLKTIPLQDQDTRYQGLVAQIELLKQAADTPEIQQLQQQVAENPEDAALATQLALQLHQVGRNEEALELLFGHLRKDLTAADGQTRKTFQEILAALGTGDALASKYRRQLYALLY
binding result [3]: binds
